Assay results from publication PMC3216659 (Molecular Biology of the Cell, 2011).

B1: MBP–Duo1 complex (complex, S. cerevisiae)
chain 1: MSEDKAKLGTTRSATEYRLSIGSAPTSRRSSMGESSSLMKFADQEGLTSSVGEYNENTIQQLLLPKIRELSDSIITLDSNFTRLNFIHESLADLNESLGSLLYGIMSNSWCVEFSQAPHDIQDDLIAIKQLKSLEDEKNNLVMELSNMERGIKRKKDEQGENDLAKASQNKQFNQPLFPSSQVRKYRSYDNRDKRKPSKIGNNLQVENEEDYEDDTSSEASFVLNPTNIGMSKSSQGHVTKTTRLNNNTNSKLRRKSILHTIRNSIASGADLPIENDNVVNLGDLHPNNRISLGSGAARVVNGPVTKNRNSMFSGRAERKPTESRHSVAKKTEKKINTRPPFR
chain 2: MSEQSQLDDSTIDKLIPQIFNEMRSNLNNTTNKFPKSTGGGASDNISANSNSIRSFNSITTQSLLKESESLDKITAMIKNVTAALKNNLPVYVNQVHEVCKSTNSILDSWINIHSQAGYIHKLMSDQTYLKLINDRLHNENVNTNDEDGSTLHNVIALKKKEILDLRQKLENRKGEKDAAPAKPPNQGLNPRYGVQSGRRPVPSAGISNNGRVRKTHVPASKRPSGIPRVTNRWTKPTASSSRKMFR
chain 3: MDSASKEETLEKLDQEITVNLQKIDSNLSFCFHKITQDIIPHVATYSEICERIMDSTEWLGTMFQETGLVNLQANAAAPVGNAPVKSLVSNNVGIFPTSAEEASRQSQTDNGPNEADSAVHVNRDVHSMFNNDSIDDFHTANITSTGQILKLPDSSDEDTGSEAVPSREQTDLTGEGHGGADDEQDESTIQRQSRKRKISLLLQQQYGSSSSMVPSPIVPNKMRKQLAHEEHINNDGDNDDENSNNIESSPLKQGHHHPKGQADDNNEGPDEEESTKEVPKPGTIIHFSTNR
chain 4: MGESLDRCIDDINRAVDSMSTLYFKPPGIFHNAILQGASNKASIRKDITRLIKDCNHDEAYLLFKVNPEKQSVSRRDGKEGVFDYVIKRDTDMKRNRRLGRPGEKPIIHVPKEVYLNKDRLDLNNKRRRTATTSGGGLNGFIFDTDLIGSSVISNSSSGTFKALSAVFKDDPQIQRLLYALENGSVLMEEESNNQRRKTIFVEDFPTDLILKVMAEVTDLWPLTEFKQDYDQLYHNYEQLSSKLRFIKKEVLLQDDRLKTMSQYHPSSSHDVAKIIRKEKDEIRRLEMEIANLQE
chain 5: MTDALEQSVLALEGTVSVLKDSVESLKCANEPSTNLASTMLQTKRVFRLVPEYDVERSKLDLIEEVEPLVRTLGDKLRKSMGRMQRELDTLQQTYELNDLRLKKNISMDDDDALNSPDMGQEYEGRDADDVVMMASSTNEELEELKKLKEKKKQLENKLEILKQK
chain 6: MMASTSNDEEKLISTTDKYFIEQRNIVLQEINETMNSILNGLNGLNISLESSIAVGREFQSVSDLWKTLYDGLESLSDEAPIDEQPTLSQSKTK
chain 7: MDSIDEQIAIKRKELQSLQKITSLTDGLKIQLTELNEQIKEMGMNADSVAQLMNNWDSIINNISQASLGLLQYAEGDYEIGPWKDSKKKESEQSNETGLEAQENDKNDEDNDEDEDLVPLPETMVRIRVDGNE
chain 8: MEHNLSPLQQEVLDKYKQLSLDLKALDETIKELNYSQHRQQHSQQETVSPDEILQEMRDIEVKIGLVGTLLKGSVYSLILQRKQEQESLGSNSK
chain 9: MENPHEQVQANILSRIIGNVKRLNESVAILNQELVTINNRNKNLEIMGAICDNYHSSVQFNLEATNNKKPPL
chain 10: MNANKQRQYNQLAHELRELQTNLQETTKQLDIMSKQCNENLVGQLGKVHGSWLIGSYIYYMEQMLGKTQ
B2: MBP–Spc34 complex (complex, S. cerevisiae)
chain 1: MSEDKAKLGTTRSATEYRLSIGSAPTSRRSSMGESSSLMKFADQEGLTSSVGEYNENTIQQLLLPKIRELSDSIITLDSNFTRLNFIHESLADLNESLGSLLYGIMSNSWCVEFSQAPHDIQDDLIAIKQLKSLEDEKNNLVMELSNMERGIKRKKDEQGENDLAKASQNKQFNQPLFPSSQVRKYRSYDNRDKRKPSKIGNNLQVENEEDYEDDTSSEASFVLNPTNIGMSKSSQGHVTKTTRLNNNTNSKLRRKSILHTIRNSIASGADLPIENDNVVNLGDLHPNNRISLGSGAARVVNGPVTKNRNSMFSGRAERKPTESRHSVAKKTEKKINTRPPFR
chain 2: MSEQSQLDDSTIDKLIPQIFNEMRSNLNNTTNKFPKSTGGGASDNISANSNSIRSFNSITTQSLLKESESLDKITAMIKNVTAALKNNLPVYVNQVHEVCKSTNSILDSWINIHSQAGYIHKLMSDQTYLKLINDRLHNENVNTNDEDGSTLHNVIALKKKEILDLRQKLENRKGEKDAAPAKPPNQGLNPRYGVQSGRRPVPSAGISNNGRVRKTHVPASKRPSGIPRVTNRWTKPTASSSRKMFR
chain 3: MDSASKEETLEKLDQEITVNLQKIDSNLSFCFHKITQDIIPHVATYSEICERIMDSTEWLGTMFQETGLVNLQANAAAPVGNAPVKSLVSNNVGIFPTSAEEASRQSQTDNGPNEADSAVHVNRDVHSMFNNDSIDDFHTANITSTGQILKLPDSSDEDTGSEAVPSREQTDLTGEGHGGADDEQDESTIQRQSRKRKISLLLQQQYGSSSSMVPSPIVPNKMRKQLAHEEHINNDGDNDDENSNNIESSPLKQGHHHPKGQADDNNEGPDEEESTKEVPKPGTIIHFSTNR
chain 4: MGESLDRCIDDINRAVDSMSTLYFKPPGIFHNAILQGASNKASIRKDITRLIKDCNHDEAYLLFKVNPEKQSVSRRDGKEGVFDYVIKRDTDMKRNRRLGRPGEKPIIHVPKEVYLNKDRLDLNNKRRRTATTSGGGLNGFIFDTDLIGSSVISNSSSGTFKALSAVFKDDPQIQRLLYALENGSVLMEEESNNQRRKTIFVEDFPTDLILKVMAEVTDLWPLTEFKQDYDQLYHNYEQLSSKLRFIKKEVLLQDDRLKTMSQYHPSSSHDVAKIIRKEKDEIRRLEMEIANLQE
chain 5: MTDALEQSVLALEGTVSVLKDSVESLKCANEPSTNLASTMLQTKRVFRLVPEYDVERSKLDLIEEVEPLVRTLGDKLRKSMGRMQRELDTLQQTYELNDLRLKKNISMDDDDALNSPDMGQEYEGRDADDVVMMASSTNEELEELKKLKEKKKQLENKLEILKQK
chain 6: MMASTSNDEEKLISTTDKYFIEQRNIVLQEINETMNSILNGLNGLNISLESSIAVGREFQSVSDLWKTLYDGLESLSDEAPIDEQPTLSQSKTK
chain 7: MDSIDEQIAIKRKELQSLQKITSLTDGLKIQLTELNEQIKEMGMNADSVAQLMNNWDSIINNISQASLGLLQYAEGDYEIGPWKDSKKKESEQSNETGLEAQENDKNDEDNDEDEDLVPLPETMVRIRVDGNE
chain 8: MEHNLSPLQQEVLDKYKQLSLDLKALDETIKELNYSQHRQQHSQQETVSPDEILQEMRDIEVKIGLVGTLLKGSVYSLILQRKQEQESLGSNSK
chain 9: MENPHEQVQANILSRIIGNVKRLNESVAILNQELVTINNRNKNLEIMGAICDNYHSSVQFNLEATNNKKPPL
chain 10: MNANKQRQYNQLAHELRELQTNLQETTKQLDIMSKQCNENLVGQLGKVHGSWLIGSYIYYMEQMLGKTQ
B3: MBP–Spc19 complex (complex, S. cerevisiae)
chain 1: MSEDKAKLGTTRSATEYRLSIGSAPTSRRSSMGESSSLMKFADQEGLTSSVGEYNENTIQQLLLPKIRELSDSIITLDSNFTRLNFIHESLADLNESLGSLLYGIMSNSWCVEFSQAPHDIQDDLIAIKQLKSLEDEKNNLVMELSNMERGIKRKKDEQGENDLAKASQNKQFNQPLFPSSQVRKYRSYDNRDKRKPSKIGNNLQVENEEDYEDDTSSEASFVLNPTNIGMSKSSQGHVTKTTRLNNNTNSKLRRKSILHTIRNSIASGADLPIENDNVVNLGDLHPNNRISLGSGAARVVNGPVTKNRNSMFSGRAERKPTESRHSVAKKTEKKINTRPPFR
chain 2: MSEQSQLDDSTIDKLIPQIFNEMRSNLNNTTNKFPKSTGGGASDNISANSNSIRSFNSITTQSLLKESESLDKITAMIKNVTAALKNNLPVYVNQVHEVCKSTNSILDSWINIHSQAGYIHKLMSDQTYLKLINDRLHNENVNTNDEDGSTLHNVIALKKKEILDLRQKLENRKGEKDAAPAKPPNQGLNPRYGVQSGRRPVPSAGISNNGRVRKTHVPASKRPSGIPRVTNRWTKPTASSSRKMFR
chain 3: MDSASKEETLEKLDQEITVNLQKIDSNLSFCFHKITQDIIPHVATYSEICERIMDSTEWLGTMFQETGLVNLQANAAAPVGNAPVKSLVSNNVGIFPTSAEEASRQSQTDNGPNEADSAVHVNRDVHSMFNNDSIDDFHTANITSTGQILKLPDSSDEDTGSEAVPSREQTDLTGEGHGGADDEQDESTIQRQSRKRKISLLLQQQYGSSSSMVPSPIVPNKMRKQLAHEEHINNDGDNDDENSNNIESSPLKQGHHHPKGQADDNNEGPDEEESTKEVPKPGTIIHFSTNR
chain 4: MGESLDRCIDDINRAVDSMSTLYFKPPGIFHNAILQGASNKASIRKDITRLIKDCNHDEAYLLFKVNPEKQSVSRRDGKEGVFDYVIKRDTDMKRNRRLGRPGEKPIIHVPKEVYLNKDRLDLNNKRRRTATTSGGGLNGFIFDTDLIGSSVISNSSSGTFKALSAVFKDDPQIQRLLYALENGSVLMEEESNNQRRKTIFVEDFPTDLILKVMAEVTDLWPLTEFKQDYDQLYHNYEQLSSKLRFIKKEVLLQDDRLKTMSQYHPSSSHDVAKIIRKEKDEIRRLEMEIANLQE
chain 5: MTDALEQSVLALEGTVSVLKDSVESLKCANEPSTNLASTMLQTKRVFRLVPEYDVERSKLDLIEEVEPLVRTLGDKLRKSMGRMQRELDTLQQTYELNDLRLKKNISMDDDDALNSPDMGQEYEGRDADDVVMMASSTNEELEELKKLKEKKKQLENKLEILKQK
chain 6: MMASTSNDEEKLISTTDKYFIEQRNIVLQEINETMNSILNGLNGLNISLESSIAVGREFQSVSDLWKTLYDGLESLSDEAPIDEQPTLSQSKTK
chain 7: MDSIDEQIAIKRKELQSLQKITSLTDGLKIQLTELNEQIKEMGMNADSVAQLMNNWDSIINNISQASLGLLQYAEGDYEIGPWKDSKKKESEQSNETGLEAQENDKNDEDNDEDEDLVPLPETMVRIRVDGNE
chain 8: MEHNLSPLQQEVLDKYKQLSLDLKALDETIKELNYSQHRQQHSQQETVSPDEILQEMRDIEVKIGLVGTLLKGSVYSLILQRKQEQESLGSNSK
chain 9: MENPHEQVQANILSRIIGNVKRLNESVAILNQELVTINNRNKNLEIMGAICDNYHSSVQFNLEATNNKKPPL
chain 10: MNANKQRQYNQLAHELRELQTNLQETTKQLDIMSKQCNENLVGQLGKVHGSWLIGSYIYYMEQMLGKTQ

Molecular target: the molecule itself
Test: negative-stain EM with 2D class averages

Stoichiometry N, 2:
B1, B2, B3
